Literature values, collected in patent US20100086958A1, “NOVEL ENZYME” (priority 2008, published 2010).
Numbering of substitutions follows the chain as printed. In names and notes the source's numbering stands. Like-named read-outs stand apart in the source and are kept apart here.

Tests used:
[1] = data from Serov et al. (2002), cited from earlier work
[2] = literature, cited from earlier work; for Km: read-out: Km NADP^+
[3] = literature, cited from earlier work; for Km: read-out: Km NAD^+
[4] = unit = μmol formate oxidized per min; literature; cited from earlier work
[5] = ADHs (DroADH, SceADH), AlaDHs, GAPDH

B1: SceFDH: FDH from S. cerevisiae, Seq ID No: 4 (protein, listed as Saccharomyces cerevisiae)
chain: MSKGKVLLVLYEGGKHAEEQEKLLGCIENELGIRNFIEEQGYELVTTIDKDPEPTSTVDRELKDAEIVITTPFFPAYISRNRIAEAPNLKLCVTAGVGSDHVDLEAANERKITVTEVTGSNVVSVAEHVMATILVLIRNYNGGHQQAINGEWDIAGVAKNEYDLEDKIISTVGAGRIGYRVLERLVAFNPKKLLYYDYQELPAEAINRLNEASKLFNGRGDIVQRVEKLEDMVAQSDVVTINCPLHKDSRGLFNKKLISHMKDGAYLVNTARGAICVAEDVAEAVKSGKLAGYGGDVWDKQPAPKDHPWRTMDNKDHVGNAMTVHISGTSLDAQKRYAQGVKNILNSYFSKKFDYRPQDIIVQN
- kcat NAD^+ [1]: 6.5 ± 0.4 s⁻¹
- Km ([1]; read-out: Km NAD^+): 36 ± 5 µM

B2: WT_DroADH: wild type ADH from Drosophila (protein, UniProt P00334 2-256, looked up)
Alcohol dehydrogenase: SFTLTNKNVIFVAGLGGIGLDTSKELLKRDLKNLVILDRIENPAAIAELKAINPKVTVTFYPYDVTVPIAETTKLLKTIFAQLKTVDVLINGAGILDDHQIERTIAVNYTGLVNTTTAILDFWDKRKGGPGGIICNIGSVTGFNAIYQVPVYSGTKAAVVNFTSSLAKLAPITGVTAYTVNPGITRTTLVHKFNSWLDVEPQVAEKLLAHPTQPSLACAENFVKAIELNQNGAIWKLDLGTLEAIQWTKHWDSGI
- kcat NADP^+ [2, 5]: 0.715 s⁻¹
- Km [2, 5]: 3090 ± 700 µM
- kcat NAD^+ [3, 5]: 10.2 s⁻¹
- Km [3, 5]: 48 ± 1 µM

B3: A46R DroADH: A46R mutant of ADH from Drosophila (protein, UniProt P00334 2-256, looked up, variant A46R)
Alcohol dehydrogenase: B2 Alcohol dehydrogenase with A45R
- kcat NADP^+ [2, 5]: 1.9 s⁻¹
- Km [2, 5]: 1270 ± 100 µM
- kcat NAD^+ [3, 5]: 7.3 s⁻¹
- Km [3, 5]: 57 ± 3 µM

B4: WT_SceADH: wild type ADH from Saccharomyces cerevisiae (protein, UniProt P00330 2-348, looked up)
Alcohol dehydrogenase 1: SIPETQKGVIFYESHGKLEYKDIPVPKPKANELLINVKYSGVCHTDLHAWHGDWPLPVKLPLVGGHEGAGVVVGMGENVKGWKIGDYAGIKWLNGSCMACEYCELGNESNCPHADLSGYTHDGSFQQYATADAVQAAHIPQGTDLAQVAPILCAGITVYKALKSANLMAGHWVAISGAAGGLGSLAVQYAKAMGYRVLGIDGGEGKEELFRSIGGEVFIDFTKEKDIVGAVLKATDGGAHGVINVSVSEAAIEASTRYVRANGTTVLVGMPAGAKCCSDVFNQVVKSISIVGSYVGNRADTREALDFFARGLVKSPIKVVGLSTLPEIYEKMEKGQIVGRYVVDTSK
- kcat NAD^+ [3, 5]: 360 s⁻¹
- Km [3, 5]: 160 µM

B5: WT_17β-HSDHs: wild type human estrogenic 17β-hydroxysteroid dehydrogenase (protein, UniProt P14061 2-328, looked up)
17-beta-hydroxysteroid …: ARTVVLITGCSSGIGLHLAVRLASDPSQSFKVYATLRDLKTQGRLWEAARALACPPGSLETLQLDVRDSKSVAAARERVTEGRVDVLVCNAGLGLLGPLEALGEDAVASVLDVNVVGTVRMLQAFLPDMKRRGSGRVLVTGSVGGLMGLPFNDVYCASKFALEGLCESLAVLLLPFGVHLSLIECGPVHTAFMEKVLGSPEEVLDRTDIHTFHRFYQYLAHSKQVFREAAQNPEEVAEVFLTALRAPKPTLRYFTTERFLPLLRMRLDDPSGSNYVTAMHREVFGDVPAKAEAGAEAGGGAGPGAEDEAGRGAVGDPELGDPPAAPQ
- kcat NADP^+ ([2]; 17β-HSDHs): 4.2 ± 0.2 s⁻¹
- kcat NAD^+ ([3]; 17β-HSDHs): 7.5 ± 0.1 s⁻¹
- Km ([3]; 17β-HSDHs): 11.8 ± 0.8 µM

B6: L36D 17β-HSDHs: L36D mutant of human estrogenic 17β-hydroxysteroid dehydrogenase (protein, UniProt P14061 2-328, looked up, variant L36D)
17-beta-hydroxysteroid …: B5 17-beta-hydroxysteroid … with L36D
- kcat NADP^+ ([2]; 17β-HSDHs): 16.7 ± 2.2 s⁻¹
- kcat NAD^+ ([3]; 17β-HSDHs): 13.9 ± 0.8 s⁻¹
- Km ([3]; 17β-HSDHs): 83 ± 5 µM

B7: WT_PstXDH: wild type xylitol dehydrogenase from Pichia stipitis (protein, UniProt P22144 1-363, looked up)
D-xylulose reductase: MTANPSLVLNKIDDISFETYDAPEISEPTDVLVQVKKTGICGSDIHFYAHGRIGNFVLTKPMVLGHESAGTVVQVGKGVTSLKVGDNVAIEPGIPSRFSDEYKSGHYNLCPHMAFAATPNSKEGEPNPPGTLCKYFKSPEDFLVKLPDHVSLELGALVEPLSVGVHASKLGSVAFGDYVAVFGAGPVGLLAAAVAKTFGAKGVIVVDIFDNKLKMAKDIGAATHTFNSKTGGSEELIKAFGGNVPNVVLECTGAEPCIKLGVDAIAPGGRFVQVGNAAGPVSFPITVFAMKELTLFGSFRYGFNDYKTAVGIFDTNYQNGRENAPIDFEQLITHRYKFKDAIEAYDLVRAGKGAVKCLIDGPE
- kcat NADP^+ ([2]; ADHs (KlADH III), G6PDHs, XDHs): 1.83 ± 0.167 s⁻¹
- kcat NAD^+ ([3]; ADHs (KlADH III), G6PDHs, XDHs): 17.5 ± 0.5 s⁻¹
- Km ([3]; ADHs (KlADH III), G6PDHs, XDHs): 381 ± 30 µM

B8: WT_PstPTDH: wild type phosphate dehydrogenase from Pseudomonas stutzeri (protein, UniProt O69054 1-336, looked up)
Phosphonate dehydrogenase: MLPKLVITHRVHDEILQLLAPHCELMTNQTDSTLTREEILRRCRDAQAMMAFMPDRVDADFLQACPELRVVGCALKGFDNFDVDACTARGVWLTFVPDLLTVPTAELAIGLAVGLGRHLRAADAFVRSGEFQGWQPQFYGTGLDNATVGILGMGAIGLAMADRLQGWGATLQYHEAKALDTQTEQRLGLRQVACSELFASSDFILLALPLNADTQHLVNAELLALVRPGALLVNPCRGSVVDEAAVLAALERGQLGGYAADVFEMEDWARADRPRLIDPALLAHPNTLFTPHIGSAVRAVRLEIERCAAQNIIQVLAGARPINAANRLPKAEPAAC
- kcat NADP^+ ([2]; PTDH): 1.41 ± 0.0083 s⁻¹
- Km ([2]; PTDH): 2510 ± 410 µM
- kcat NAD^+ ([3]; PTDH): 2.93 ± 0.14 s⁻¹
- Km ([3]; PTDH): 53 ± 9 µM

B9: E175A PstPTDH: E175A mutant of phosphate dehydrogenase from Pseudomonas stutzeri (protein, UniProt O69054 1-336, looked up, variant E175A)
Phosphonate dehydrogenase: B8 Phosphonate dehydrogenase with E175A
- kcat NADP^+ ([2]; PTDH): 2.18 ± 0.0067 s⁻¹
- Km ([2]; PTDH): 144 ± 14 µM
- kcat NAD^+ ([3]; PTDH): 3.5 ± 0.005 s⁻¹
- Km ([3]; PTDH): 16 ± 0.8 µM

B10: A176R PstPTDH: A176R mutant of phosphate dehydrogenase from Pseudomonas stutzeri (protein, UniProt O69054 1-336, looked up, variant A176R)
Phosphonate dehydrogenase: B8 Phosphonate dehydrogenase with A176R
- kcat NADP^+ ([2]; PTDH): 2.18 ± 0.0067 s⁻¹
- Km ([2]; PTDH): 77 ± 8.4 µM
- kcat NAD^+ ([3]; PTDH): 4.28 ± 0.0083 s⁻¹
- Km ([3]; PTDH): 60 ± 7 µM

B11: E175A/A176R PstPTDH: E175A/A176R mutant of phosphate dehydrogenase from Pseudomonas stutzeri (protein, UniProt O69054 1-336, looked up, variant E175A A176R)
Phosphonate dehydrogenase: B8 Phosphonate dehydrogenase with E175A, A176R
- kcat NADP^+ ([2]; PTDH): 1.9 ± 0.0083 s⁻¹
- Km ([2]; PTDH): 3.5 ± 0.5 µM
- kcat NAD^+ ([3]; PTDH): 3.94 ± 0.0083 s⁻¹
- Km ([3]; PTDH): 20 ± 1.3 µM

B12: WT_BstGAPDH: wild type glyceraldehydes-3-phosphate dehydrogenase from Bacillus stearothermophilus (protein, UniProt P00362 2-335, looked up)
Glyceraldehyde-3-phosphate …: AVKVGINGFGRIGRNVFRAALKNPDIEVVAVNDLTDANTLAHLLKYDSVHGRLDAEVSVNGNNLVVNGKEIIVKAERDPENLAWGEIGVDIVVESTGRFTKREDAAKHLEAGAKKVIISAPAKNEDITIVMGVNQDKYDPKAHHVISNASCTTNCLAPFAKVLHEQFGIVRGMMTTVHSYTNDQRILDLPHKDLRRARAAAESIIPTTTGAAKAVALVLPELKGKLNGMAMRVPTPNVSVVDLVAELEKEVTVEEVNAALKAAAEGELKGILAYSEEPLVSRDYNGSTVSSTIDALSTMVIDGKMVKVVSWYDNETGYSHRVVDLAAYIASKGL
- kcat NAD^+ [3, 5]: 280 s⁻¹
- Km [3, 5]: 150 µM

B13: CboFDH: wild type FDH from Candida Boidinii, Seq ID No: 13 (protein, listed as Candida boidinii)
chain: MKIVLVLYDAGKHAADEEKLYGCTENKLGIANWLKDQGHELITTSDKEGGNSVLDQHIPDADIIITTPFHPAYITKERIDKAKKLKLVVVAGVGSDHIDLDYINQTGKKISVLEVTGSNVVSVAEHVVMTMLVLVRNFVPAHEQIINHDWEVAAIAKDAYDIEGKTIATIGAGRIGYRVLERLVPFNPKELLYYDYQALPKDAEEKVGARRVENIEELVAQADIVTVNAPLHAGTKGLINKELLSKFKKGAWLVNTARGAICVAEDVAAALESGQLRGYGGDVWFPQPAPKDHPWRDMRNKYGAGNAMTPHYSGTTLDAQTRYAQGTKNILESFFTGKFDYRPQDIILLNGEYVTKAYGKHDKK
- activity with NADP^+ [4]: 0.0013 U/mg
- activity with NAD^+ [4]: 2.2 U/mg

B14: C. bodinii D195S: D195S mutant of C. bodinii FDH (protein, UniProt O13437 1-364, looked up, variant D195S)
Formate dehydrogenase: B13 chain with G50E, N51T, V53E, Q56K, I79L, K84N, V184L, D195S, D202E, Q325E
- activity with NADP^+ [4]: 0.083 U/mg
- activity with NAD^+ [4]: 1.5 U/mg

B15: C. bodinii D195S/Y196H: D195S/Y196H mutant of C. bodinii FDH (protein, UniProt O13437 1-364, looked up, variant D195S Y196H)
Formate dehydrogenase: MKIVLVLYDAGKHAADEEKLYGCTENKLGIANWLKDQGHELITTSDKEGETSELDKHIPDADIIITTPFHPAYITKERLDKAKNLKLVVVAGVGSDHIDLDYINQTGKKISVLEVTGSNVVSVAEHVVMTMLVLVRNFVPAHEQIINHDWEVAAIAKDAYDIEGKTIATIGAGRIGYRVLERLLPFNPKELLYYSHQALPKEAEEKVGARRVENIEELVAQADIVTVNAPLHAGTKGLINKELLSKFKKGAWLVNTARGAICVAEDVAAALESGQLRGYGGDVWFPQPAPKDHPWRDMRNKYGAGNAMTPHYSGTTLDAQTRYAEGTKNILESFFTGKFDYRPQDIILLNGEYVTKAYGKHDKK
- activity with NADP^+ [4]: 0.19 U/mg
- activity with NAD^+ [4]: 1.3 U/mg

B16: C. bodinii D195S/Y196H/K356T: D195S/Y196H/K356T mutant of C. bodinii FDH (protein, UniProt O13437 1-364, looked up, variant D195S Y196H K356T)
Formate dehydrogenase: B15 Formate dehydrogenase with K356T
- activity with NADP^+ [4]: 0.36 U/mg
- activity with NAD^+ [4]: 1.3 U/mg
